Results published in publication PMC9331606 (2022).

What was measured:
[1] = biological target: NanoLuciferase-tagged human promyelocytic leukemia protein (hPML) (UniProt P29590); experiment: NanoBRET; conditions: HEK293T cells transfected 24 h; 4 h incubation with Halo ligand; detection time 5 s at 618 nm and 448 nm; parent: est. 23; read off a plot
[2] = biological target: NanoLuciferase-tagged rat promyelocytic leukemia protein (rPML); experiment: NanoBRET; conditions: HEK293T cells transfected 24 h; 4 h incubation with Halo ligand; detection time 5 s at 618 nm and 448 nm; parent: est. 2.8; read off a plot

Sequence of NanoLuciferase-tagged human promyelocytic leukemia protein (hPML) (P29590 whole entry): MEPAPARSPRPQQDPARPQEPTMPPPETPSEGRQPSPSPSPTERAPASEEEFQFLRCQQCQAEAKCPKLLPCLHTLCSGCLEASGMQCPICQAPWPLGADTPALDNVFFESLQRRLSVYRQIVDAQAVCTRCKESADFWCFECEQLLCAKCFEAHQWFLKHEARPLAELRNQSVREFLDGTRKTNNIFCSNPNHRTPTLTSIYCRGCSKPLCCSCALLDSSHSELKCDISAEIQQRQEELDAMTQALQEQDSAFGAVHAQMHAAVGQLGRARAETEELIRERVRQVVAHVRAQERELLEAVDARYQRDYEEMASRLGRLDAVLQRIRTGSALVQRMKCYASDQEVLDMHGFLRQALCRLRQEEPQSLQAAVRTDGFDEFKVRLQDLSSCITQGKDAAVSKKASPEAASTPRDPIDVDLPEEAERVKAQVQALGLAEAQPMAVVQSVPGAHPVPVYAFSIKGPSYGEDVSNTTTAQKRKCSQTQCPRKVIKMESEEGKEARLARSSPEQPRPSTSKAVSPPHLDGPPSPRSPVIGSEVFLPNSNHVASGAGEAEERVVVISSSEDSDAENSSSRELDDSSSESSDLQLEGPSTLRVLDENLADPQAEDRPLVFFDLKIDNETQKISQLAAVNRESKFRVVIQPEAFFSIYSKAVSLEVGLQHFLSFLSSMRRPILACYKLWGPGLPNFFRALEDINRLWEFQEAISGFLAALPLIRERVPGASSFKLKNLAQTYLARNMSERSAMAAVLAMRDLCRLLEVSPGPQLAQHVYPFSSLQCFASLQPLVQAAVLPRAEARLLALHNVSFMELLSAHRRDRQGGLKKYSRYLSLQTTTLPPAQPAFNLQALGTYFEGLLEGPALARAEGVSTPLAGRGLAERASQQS

Row | Substance | response [1] [mBU] | response [2] [mBU]
1 | Halo-tagged human cytomegalovirus immediate early 1 protein (hIE1) (from UniProt P13202) cc172-176 | 24 | 
2 | Halo-tagged human cytomegalovirus immediate early 1 protein (hIE1) (from UniProt P13202) hIE1_rH8 | 2.2 | 6.5
3 | Halo-tagged human cytomegalovirus immediate early 1 protein (hIE1) (from UniProt P13202) hIE1_rH1 | 1.6 | 5.5
4 | Halo-tagged human cytomegalovirus immediate early 1 protein (hIE1) (from UniProt P13202) hIE1_rH1/2 | 3.7 | 6.5
5 | Halo-tagged human cytomegalovirus immediate early 1 protein (hIE1) (from UniProt P13202) hIE1_rH4 | 4.1 | 4
6 | Halo-tagged human cytomegalovirus immediate early 1 protein (hIE1) (from UniProt P13202) hIE1_rH10/11 | 2.6 | 6.5
7 | Halo-tagged human cytomegalovirus immediate early 1 protein (hIE1) (from UniProt P13202) L174P |  | 7
